Results on six molecules are retold here after patent US20250355001A1 (GTINVENT, published 2025).

For one test, the target named is tau fragment 275-305 (human). As to the kind of experiment: direct ELISA.
For a further test, the target named is T1, dGAE (tau 297-391) (human, UniProt P10636 614-708).
T1 construct: monomer; also called dGAE95
As to the kind of experiment: ELISA. The procedure:
(§1) A series of binding ELISA was performed using various truncated versions of the tau protein and 13mer peptide libraries spanning the entire hT40 molecule for mapping the epitopes of anti-tau scAbs (Full list of protein antigens used is given in Table 14). In general, ELISA plates were coated with 1 μg/ml hT40 or dGA or dGAE or other truncated versions of the protein and in the case of biotinylated peptides, plates were coated with 5 μg/ml Streptavidin followed by 1 μg/ml biotinylated peptide. The plates were blocked with 2% MPBS and scAb samples added at desired starting concentrations and double diluted across the plate. Binding was detected using anti-Human C Kappa HRP conjugated secondary antibody and the resulting immunoreaction was developed and absorbance values measured as described above.
On the technique in general: An ELISA detects its analyte on a solid surface through an enzyme-linked reagent.

Test [1] addresses T2, dGA (tau 297-390) (human, UniProt P10636 614-707). Briefly: ELISA. The protocol: as §1
In test [2] the target is T3, full length human tau protein 2N4R (hT40) (human, UniProt P10636 1-758).
T3 construct: recombinant; also called T441
As to the kind of experiment: ELISA. The procedure:
as §1

Test [3] has as its target tau fragment 337-368 (human). As to the kind of experiment: direct ELISA.
Test [4] deals with T3, full length human tau protein 2N4R …. Briefly: SPR, scAb captured, tau analyte. In a few lines: (§2)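 scAb captured on flow cell 2 of an antibody-coated chip, flow cell 1 as reference; tau analyte injected 120 s association, 420 s dissociation, glycine pH 2.0 regeneration, in multi-cycle or single-cycle kinetics format. Responses fitted to a 1:1 binding model for kinetics and affinity.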
Target sequence in this assay (P10636 other isoform, or with tags, fused parts or gaps limits assumed): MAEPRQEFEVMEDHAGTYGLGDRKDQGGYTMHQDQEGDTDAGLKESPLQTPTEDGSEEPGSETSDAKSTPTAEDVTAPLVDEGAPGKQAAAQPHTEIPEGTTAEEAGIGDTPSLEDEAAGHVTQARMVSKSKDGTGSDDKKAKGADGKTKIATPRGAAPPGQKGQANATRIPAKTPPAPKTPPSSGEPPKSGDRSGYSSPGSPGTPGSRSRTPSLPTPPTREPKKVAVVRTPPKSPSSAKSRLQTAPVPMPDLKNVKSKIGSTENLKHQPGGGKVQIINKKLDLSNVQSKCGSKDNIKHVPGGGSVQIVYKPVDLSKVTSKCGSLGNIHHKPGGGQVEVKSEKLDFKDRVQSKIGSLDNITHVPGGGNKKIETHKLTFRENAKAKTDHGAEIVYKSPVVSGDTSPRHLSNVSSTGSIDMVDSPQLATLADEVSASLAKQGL
In general terms: Surface plasmon resonance follows binding to a sensor surface in real time, without labels.

A further test deals with tau fragment 1-111 (human, UniProt P10636 1-111). As to the kind of experiment: direct ELISA. The procedure:
as §1

The next test has as its target T4, tau fragment 1-49 (human).
T4 construct: also called Tau 1-49
T4 peptide: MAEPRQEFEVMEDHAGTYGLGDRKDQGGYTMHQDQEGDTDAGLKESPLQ
Briefly: direct ELISA. The procedure:
as §1

The target of test [5] is T3, full length human tau protein 2N4R …. As to the kind of experiment: hT40 ELISA. The procedure:
as §1

Test [6] shares this target. Briefly: hT40 ELISA. This is another data set of the same source.
Test [7] has the same target. As to the kind of experiment: hT40 ELISA. This is another data set of the same source.
Target sequence in this assay (P10636 other isoform, or with tags, fused parts or gaps limits assumed): as the sequence (P10636 other isoform, or with tags, fused parts or gaps limits assumed) above
For test [8] the target is unchanged. As to the kind of experiment: hT40 ELISA. This is another data set of the same source.
Target sequence in this assay (P10636 other isoform, or with tags, fused parts or gaps limits assumed): as the sequence (P10636 other isoform, or with tags, fused parts or gaps limits assumed) above
For test [9], the target named is T5, tau parent peptide 319-331 (TSKCGSLGNIHHK).
T5 peptide: Biotin-TSKCGSLGNIHHK
Briefly: ELISA on biotinylated peptide over streptavidin. The protocol:
Briefly, 5 μg/ml streptavidin (Thermo Fisher) was adsorbed to Nunc 96-well MaxiSorp plates and following incubation at 37° C. for 1 h, the plates were washed as normal and blocked with 2% MPBS. N-terminally biotinylated peptides (Prolmmune Ltd) were added to the plates and incubated for 1 h at 37° C. Subsequently, test scAbs at starting concentrations of 100-500 nM was added and double diluted across the plate for each peptide and incubated for 1 h at 37° C. Rest of the ELISA was conducted as described above and the plates were read at absorbance 450 nm. Immunoreactivity of the scAb of interest was quantified as the % of scAb was bound for each peptide at a chosen concentration (FIG. 15-20).

In test [10] the target is T3, full length human tau protein 2N4R …. Briefly: SPR, summary table. The procedure: The capture antibody was diluted 1/100 in 10 mM Sodium acetate buffer pH 5.0 and passed over the activated chip surface for a period of at least 420 s. Final ligand immobilisation levels over 12,000 RU were deemed to be satisfactory.
The scAb to be tested was added only to flow cell 2 so that flow cell 1 could act as a control to subtract any interaction with the analyte and the chip surface. […] The multi-cycle protocol was as follows-Three start-up cycles composed of an initial capture, to the desired level, of the scAb to be tested was performed followed by a 30 s injection of glycine buffer pH 2.0 after each cycle to regenerate the chip surface. […] The target was added for a 120 s association period and 420 s dissociation period followed by another regeneration, 30 s injection of glycine buffer pH 2.0 in between each cycle.
The single cycle kinetics protocol was similar and utilised the same level of scAb capture. […] In single cycle kinetics the regeneration step was performed only after the final analyte concentration was added. Binding responses were analysed in Biacore X100 evaluation software and data fitted to a 1:1 binding model to obtain kinetic and affinity characterisation.
Target sequence in this assay (P10636 other isoform, or with tags, fused parts or gaps limits assumed): as the sequence (P10636 other isoform, or with tags, fused parts or gaps limits assumed) above

In a further test the target is tau fragment 348-441 (human, UniProt P10636 665-758). Briefly: direct ELISA.
tau fragment 348-441, sequence (P10636 665-758): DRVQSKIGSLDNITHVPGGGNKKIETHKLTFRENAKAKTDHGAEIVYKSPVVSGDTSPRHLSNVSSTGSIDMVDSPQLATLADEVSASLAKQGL
The target of test [11] is T3, full length human tau protein 2N4R …. As to the kind of experiment: sandwich ELISA, S1D12 mAb capture, scAb detection. In a few lines:
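Read-out was HRP anti-HuCk with absorbance at 450 nm (positive above 0.3 after background subtraction) or chemiluminescence, including directly HRP-conjugated scAbs.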
Target sequence in this assay (P10636 other isoform, or with tags, fused parts or gaps limits assumed): as the sequence (P10636 other isoform, or with tags, fused parts or gaps limits assumed) above

For test [12] the target is unchanged. Briefly: Biacore. In a few lines:
as §2
Target sequence in this assay (P10636 other isoform, or with tags, fused parts or gaps limits assumed): as above

For test [13], the target named is T6, tau parent peptide 367-379 (GNKKIETHKLTFR) (human).
T6 peptide: Biotin-GNKKIETHKLTFR
As to the kind of experiment: ELISA on biotinylated peptide over streptavidin.

Test [14] concerns the target T7, aggregated dGAE (human, UniProt P10636 614-708, limits assumed).
T7 construct: dGAE aggregated in vitro with DTT, 700 rpm, 37 C, 24 h; also called dGAE aggregates; dGAE agg
As to the kind of experiment: ELISA, direct immobilisation, SDS + Triton treated dGAE aggregates.

For test [15], the target named is T2, dGA (tau 297-390). Briefly: SPR, scAb captured, tau analyte. In a few lines:
as §2
Target sequence in this assay (P10636 614-707 limits assumed): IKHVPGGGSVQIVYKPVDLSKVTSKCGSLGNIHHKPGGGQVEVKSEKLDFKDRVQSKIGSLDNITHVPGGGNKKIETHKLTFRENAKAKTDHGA

Test [16] concerns the target T7, aggregated dGAE. Briefly: sandwich ELISA, Triton-treated aggregates titrated, S1D12 mAb capture. The protocol:
(§3) For aggregation, 1000 μL 100 μM dGAE+10 μL 10 mM DTT was added to a ‘LoBind’ microfuge tubes and agitated at 700 RPM/37° C. for 24 hours. Resulting sample centrifuged at 17,000×g/4° C. for 60 min and supernatant discarded to remove left over monomer. Pellet resuspended in half the original volume for future experiments and hereafter referred to as ‘aggregates’. 1 μl of aggregates was added to 1 ml of PBS and SDS was added to a final concentration of 1% (w/v). This was left to incubate on lab bench for 1 h with gentle agitation every 15 minutes. In order to neutralize the SDS effect on ELISA, Triton X-100 added to a final concentration of 3% (v/v) and mixed gently by pipetting to prevent any bubble formation. […] Similarly aggregates treated with only SDS or Triton X-100, untreated aggregates, dGAE monomers treated with only SDS or SDS+Titon X-100 were also added to designated wells as controls. All samples were then double diluted across the plate in final volumes of 100 μl. The final column was left with no protein to act as a blank.

The next test addresses T8, tau fragment 369-390 (human).
T8 peptide: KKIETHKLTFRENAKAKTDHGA
As to the kind of experiment: direct ELISA.

For test [17], the target named is T7, aggregated dGAE. As to the kind of experiment: sandwich ELISA, S1D12 mAb capture, SDS + Triton treated dGAE aggregates. The procedure:
as §3

The target of test [18] is tau fragment 337-368 (human). As to the kind of experiment: direct ELISA. The source holds these as a separate data set.
tau fragment 337-368 (human), sequence (peptide, as listed by the source): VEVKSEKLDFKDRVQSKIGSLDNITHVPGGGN
Another test addresses T9, tau fragment 186-350 (human, UniProt P10636 503-667).
T9 construct: also called m186-350
As to the kind of experiment: direct ELISA.

A further test has as its target T10, tau fragment 369-391 (human).
T10 peptide: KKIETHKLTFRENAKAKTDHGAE
Briefly: direct ELISA.

Read-outs that look alike come from different tables or passages of the source. Where no end group is shown, it is not given here. The star is where a group is joined. Biotin = O=C1N[C@H]2[C@H](CS[C@H]2CCCCC(=O)*)N1

A word on the Kd: it is a measure of binding affinity in units of concentration. A higher Kd goes with a looser complex. Broadly, the koff is a measure of how fast the partners let go of each other. What is called kon is a measure of how fast the partners come together. Lower therefore signals slow association. The EC50 (read off the curve) is the concentration giving half of the maximal effect.

T9 sequence (P10636 503-667): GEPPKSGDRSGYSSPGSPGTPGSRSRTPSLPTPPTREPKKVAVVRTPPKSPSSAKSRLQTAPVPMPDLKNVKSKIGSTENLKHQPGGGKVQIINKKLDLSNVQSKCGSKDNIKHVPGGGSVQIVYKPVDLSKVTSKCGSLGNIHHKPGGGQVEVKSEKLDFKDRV
tau fragment 275-305 (human), sequence (peptide, as listed by the source): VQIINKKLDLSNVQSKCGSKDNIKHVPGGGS

B1: NS1G7 scAb (scFv, not shown: small tags and cut ends)
scFv: QVQLQESGPSLVKPSQTLSLTCTVSGFSLTSYGVGWVRQAPGKTLEWISSISSGGTTFYNPALKSRLSITRDTSESQVSLSLSSVTTEDTAVYYCTRDVHIYYNDYGAAYGDRDYWGPGLLVTVSSEGKSSGASGESKVDDQAVVTQPPSVSGSPGQRVSITCSGSSSNIGGGNYVSWYQQLPGSGLRTLIYGTTSRASGVPDRFSGSGSGNTATLTISSLQAEDEADYYCASYDTNSGSVFGSGTRLTVLG
notes: scAb
In the case of B1, the binding result (with tau fragment 275-305; with dGAE (tau 297-391); in the test with dGA (tau 297-390) [1]; in [2]; with tau fragment 337-368 [3]) was “binds” in each case.

B2: 3aG3 scAb (scFv, not shown: small tags and cut ends)
scFv: QVQLQESGPSLVKPSQTLSLTCTVSGFSLSSNGVGWVRQAPGKVPEWVGDISSSGKAYANPALKSRLSITRDTAKTQVFLSLSSVTTEDTAVYYCVRCRDGGVSYGYDIDYWGPGLLVTVSSEGKSSGASGESKVDDQAVLTQPPSVSGSPGQRVSITCSGSSSNIGGGNYLSWFQQVPGSAPKLLIYGATSRASGVPDRFSGSRSGNTATLTISSLQAEDEADYYCASFDTSSGGIFGAGTRLTVLG
notes: scAb
For B2, in [4], the Kd was 6.1 nM, the off-rate (koff) was found to be 0.000387 s⁻¹ and the on-rate constant (kon) was found to be 62900 M⁻¹ s⁻¹. The “EC50 (read off the curve)” value in the test with tau fragment 1-111 was roughly 0.5 µg/mL. The “EC50 (read off the curve)” value with tau fragment 1-49 is roughly 1 µg/mL.

B3: 412G11 (scFv)
scAb: QVRLQESGPSLVKPSQTLSLTCTVSGFSLTSYALGWVRQAPGRAPEWIGNIWRGGRIEYNPALKSRLSITRDTSKSQVSLSLSSVTTEDTAVYYCSRSGGDWGPGLLVTVSSEGKSSGASGESKVDDQAVLTQPSSVSGSLGQRVSITCSGSSSNVGYGNYVGWYQQVPGSAPKLLIYGATSRASGVPDRFSGSRSENTATLTISSLQAEDEADYYCASYDRSESVVFGSGTRLTVLG
Consider B3, for which the “EC50 (read off the curve)” value is roughly 2 µg/mL in test [5], roughly 5 µg/mL in test [6] and roughly 2 µg/mL in test [7].

B4: CE2 scAb (scFv, not shown: small tags and cut ends)
scFv: QVQLQESGPSLVKPSQTLSLTCTVSGFSLTNYPVGWVRQAPGKALEWIGNIENDGSANYASALKSRLSITRDTSKNQVSLSLSSATTEDTAVYYCGREFGGSDGYTYFVDIDYWGPGLLVTVSSEGKSSGASGESKVDDQAVLTQPSSVSKSLGQSVSITCSGSSSNVGYGNYVSWFQQVPGSAPKILIYGATSRASGVPDRFSGSRSGNTATLTITSLQAEDEADYYCASYDGSSSGVFGSGTRLTVLG
notes: scAb
As to B4, the “EC50 (read off the curve)” value in test [8] was roughly 0.1 µg/mL. For the same molecule, in test [4], the Kd came to 5.03 nM, the koff amounted to 0.00108 s⁻¹ and the kon was 214000 M⁻¹ s⁻¹. Besides, the binding result in [9] is recorded as “binds”. Moreover, the affinity in test [10], expressed as Kd, was 5.03 nM.

B5: CB2 scAb (scFv, not shown: small tags and cut ends)
scFv: QVQLQESGPSLVKPSQTLSLTCTVSGFSLSTNSVGWVRQAPGKAPEWVAGIDTDGEEGFNPVLKSRLSITRDTSKSQVSLSLSNVTSEDTAVYYCGRSYRTDGLAYGYVQAIDYWGPGLLVTISSEGKSSGASGESKVDDQSVLTQPSSVSGSPGQTVSITCSGSYIGSSGVGWFQQLPGSGLRTIIVASDGRPSGVPDRFSMSKSGNTATLTISSLQAEDEADYFCGSSDRTQYTGLFGSGTRLTVLG
notes: scAb
With B5, the binding result (with tau fragment 348-441; in test [2]) was “binds” each time.

B6: S1G2 scAb (scFv, not shown: small tags and cut ends)
scFv: QVQLQESGPSLVKPSQTLSLTCTVSGFSLTSNSVGWVRQAPGKAPEWVAGIDTDGEEGYNPALNSRLSITRDTSKSQVSLSLSSVTSEDTAVYYCGRSYRADGLAYGYVQAIDYWGPGLLVTVSSEGKSSGASGESKVDDQAVVTQPSSVSGSLGQRVSITCSGSFIGISSVGWFQQLPGSGLRTIIVASDGRPSGVPDRFSMSKSGNTATLTISSLQAEDEADYFCGSSDRTPYTGVFGSGTRLTVLG
notes: scAb
For B6, in test [11], the LoD chemiluminescence detection is 0.12 ng/mL. In test [11], this molecule showed a LoD colourimetric detection of 2 ng/mL. Also, the Kd in [12] was 0.6 nM; with dGA (tau 297-390) [15] it was 0.447 nM; in [4] it was 0.17 nM; in test [10] it was 0.17 nM. The “EC50 (read off the curve)” value in [13] was roughly 10 µg/mL; with aggregated dGAE [16], roughly 0.05 µg/mL; with tau fragment 369-390, roughly 0.4 µg/mL; with tau fragment 369-391 it was roughly 0.5 µg/mL. Besides, the figures for the LoD with aggregated dGAE [14] and with aggregated dGAE [17] were 16 ng/mL and 2 ng/mL, respectively. Moreover, the koff in the test with dGA (tau 297-390) [15] stood at 0.00035 s⁻¹; in test [4], 0.00018 s⁻¹. Also, the on-rate (kon) came out at 783000 M⁻¹ s⁻¹ with dGA (tau 297-390) [15] and 1.06e+06 M⁻¹ s⁻¹ in [4]. Besides, the binding result in the test with tau fragment 337-368 [18] and with tau fragment 186-350 was “no binding (tested: 25 ug/ml)” throughout.
